The source of these data is CN111690058A.

This assay has as its target S蛋白RBD-His (319Arg-532Asn) (2019-nCoV (SARS-CoV-2)) (UniProt P0DTC2). Description: BLI (Fortebio), RBD-His on Anti-Penta-HIS sensor, antibody in solution.

pKd: −log10 of the molar value.

A word on the pKd: it is the negative decadic logarithm of the Kd, by convention in mol/L. The low end stands for a high Kd, the high end for a low Kd. As a reminder, the koff is a measure of how fast the partners let go of each other. A high value points to a short-lived complex. By kon is commonly meant the rate constant with which the complex forms. 对照抗体CR3022 (antibody) had a pKd of 8.62, a koff of 0.000278 s⁻¹ and a kon of 115000 M⁻¹ s⁻¹.
